This passage reports Ho/Con_1a results from patent US20180155451A1 (published 2018).

B1: GpH7-B3 variant Y296_18N/GpL16-k0 (antibody, human IgG1, kappa)
heavy: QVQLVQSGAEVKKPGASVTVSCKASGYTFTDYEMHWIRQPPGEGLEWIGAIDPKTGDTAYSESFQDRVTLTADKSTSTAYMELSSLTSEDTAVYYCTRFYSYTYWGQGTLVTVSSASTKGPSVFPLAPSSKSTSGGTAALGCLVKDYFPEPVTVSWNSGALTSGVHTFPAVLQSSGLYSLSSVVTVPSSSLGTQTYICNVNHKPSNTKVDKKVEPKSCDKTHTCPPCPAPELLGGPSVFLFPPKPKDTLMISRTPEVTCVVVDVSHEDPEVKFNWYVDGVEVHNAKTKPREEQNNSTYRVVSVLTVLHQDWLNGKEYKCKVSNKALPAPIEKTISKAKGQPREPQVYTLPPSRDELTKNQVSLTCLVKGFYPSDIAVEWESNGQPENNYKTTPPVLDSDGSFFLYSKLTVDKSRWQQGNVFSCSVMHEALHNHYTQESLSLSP
light: DIVMTQSPLSLPVTPGEPASISCQASESLVHSNRNTYLHWYLQKPGQSPQLLIYKVSNRFSGVPDRFSGSGSGTDFTLKISRVEAEDVGVYYCSQNTHVPPTFGQGTKVEIERTVAAPSVFIFPPSDEQLKSGTASVVCLLNNFYPREAKVQWKVDNALQSGNSQESVTEQDSKDSTYSLSSTLTLSKADYEKHKVYACEVTHQGLSSPVTKSFNRGEC
notes: homodimerized IgG1; mutation in both H chains; also called Ho Ab
B2: GpH7-B3 variant Y300_09D/GpL16-k0 (antibody, human IgG1, kappa)
heavy: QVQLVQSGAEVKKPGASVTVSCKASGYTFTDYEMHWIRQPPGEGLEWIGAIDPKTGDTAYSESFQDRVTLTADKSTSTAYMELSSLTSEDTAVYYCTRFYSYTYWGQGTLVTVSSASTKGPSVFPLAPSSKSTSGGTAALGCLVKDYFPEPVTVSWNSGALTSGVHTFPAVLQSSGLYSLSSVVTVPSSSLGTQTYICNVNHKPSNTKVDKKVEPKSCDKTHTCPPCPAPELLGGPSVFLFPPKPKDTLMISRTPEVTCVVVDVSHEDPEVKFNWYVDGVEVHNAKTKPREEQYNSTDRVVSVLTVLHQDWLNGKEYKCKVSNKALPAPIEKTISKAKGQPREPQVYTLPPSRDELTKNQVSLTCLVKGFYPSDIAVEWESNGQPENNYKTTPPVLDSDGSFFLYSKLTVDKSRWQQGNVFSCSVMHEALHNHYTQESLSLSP
light: DIVMTQSPLSLPVTPGEPASISCQASESLVHSNRNTYLHWYLQKPGQSPQLLIYKVSNRFSGVPDRFSGSGSGTDFTLKISRVEAEDVGVYYCSQNTHVPPTFGQGTKVEIERTVAAPSVFIFPPSDEQLKSGTASVVCLLNNFYPREAKVQWKVDNALQSGNSQESVTEQDSKDSTYSLSSTLTLSKADYEKHKVYACEVTHQGLSSPVTKSFNRGEC
notes: as for B1
B3: GpH7-B3 variant Y296_20W/GpL16-k0 (antibody, human IgG1, kappa)
heavy: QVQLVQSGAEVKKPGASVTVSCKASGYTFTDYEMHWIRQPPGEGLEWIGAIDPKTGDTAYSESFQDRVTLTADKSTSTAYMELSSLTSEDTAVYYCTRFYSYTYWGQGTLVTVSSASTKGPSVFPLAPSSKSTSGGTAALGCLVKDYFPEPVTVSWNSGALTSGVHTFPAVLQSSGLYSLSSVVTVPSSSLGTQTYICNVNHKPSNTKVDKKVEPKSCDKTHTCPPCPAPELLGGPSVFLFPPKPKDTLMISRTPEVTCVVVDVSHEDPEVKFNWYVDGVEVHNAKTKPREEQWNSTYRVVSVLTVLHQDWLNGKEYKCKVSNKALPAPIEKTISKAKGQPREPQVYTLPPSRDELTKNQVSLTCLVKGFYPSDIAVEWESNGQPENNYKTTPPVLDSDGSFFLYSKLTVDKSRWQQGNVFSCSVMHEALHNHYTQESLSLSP
light: DIVMTQSPLSLPVTPGEPASISCQASESLVHSNRNTYLHWYLQKPGQSPQLLIYKVSNRFSGVPDRFSGSGSGTDFTLKISRVEAEDVGVYYCSQNTHVPPTFGQGTKVEIERTVAAPSVFIFPPSDEQLKSGTASVVCLLNNFYPREAKVQWKVDNALQSGNSQESVTEQDSKDSTYSLSSTLTLSKADYEKHKVYACEVTHQGLSSPVTKSFNRGEC
notes: as for B1
B4: GpH7-B3 variant Y300_08L/GpL16-k0 (antibody, human IgG1, kappa)
heavy: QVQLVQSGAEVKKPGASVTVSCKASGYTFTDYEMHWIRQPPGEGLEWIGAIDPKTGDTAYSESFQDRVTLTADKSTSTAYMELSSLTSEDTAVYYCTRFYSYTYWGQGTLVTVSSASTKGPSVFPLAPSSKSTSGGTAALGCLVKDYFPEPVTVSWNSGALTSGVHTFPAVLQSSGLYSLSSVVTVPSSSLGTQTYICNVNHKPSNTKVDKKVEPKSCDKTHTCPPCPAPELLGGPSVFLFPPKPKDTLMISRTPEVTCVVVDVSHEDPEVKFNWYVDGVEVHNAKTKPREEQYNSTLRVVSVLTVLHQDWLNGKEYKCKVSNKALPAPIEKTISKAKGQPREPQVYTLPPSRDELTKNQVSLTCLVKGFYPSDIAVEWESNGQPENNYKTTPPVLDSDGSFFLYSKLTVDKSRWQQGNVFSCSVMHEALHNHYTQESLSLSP
light: DIVMTQSPLSLPVTPGEPASISCQASESLVHSNRNTYLHWYLQKPGQSPQLLIYKVSNRFSGVPDRFSGSGSGTDFTLKISRVEAEDVGVYYCSQNTHVPPTFGQGTKVEIERTVAAPSVFIFPPSDEQLKSGTASVVCLLNNFYPREAKVQWKVDNALQSGNSQESVTEQDSKDSTYSLSSTLTLSKADYEKHKVYACEVTHQGLSSPVTKSFNRGEC
notes: as for B1
B5: GpH7-B3 variant Y300_06M/GpL16-k0 (antibody, human IgG1, kappa)
heavy: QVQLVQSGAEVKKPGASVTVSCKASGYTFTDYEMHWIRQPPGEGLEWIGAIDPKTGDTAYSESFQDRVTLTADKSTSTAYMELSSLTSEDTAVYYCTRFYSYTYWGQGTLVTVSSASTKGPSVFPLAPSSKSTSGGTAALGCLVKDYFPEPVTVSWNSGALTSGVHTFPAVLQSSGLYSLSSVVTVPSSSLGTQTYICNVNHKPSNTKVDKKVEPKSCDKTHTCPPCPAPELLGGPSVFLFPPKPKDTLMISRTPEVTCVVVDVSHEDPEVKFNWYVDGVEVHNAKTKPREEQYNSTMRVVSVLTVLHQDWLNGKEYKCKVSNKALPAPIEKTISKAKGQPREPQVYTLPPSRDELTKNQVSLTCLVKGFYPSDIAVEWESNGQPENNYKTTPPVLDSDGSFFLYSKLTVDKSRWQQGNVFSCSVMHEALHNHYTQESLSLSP
light: DIVMTQSPLSLPVTPGEPASISCQASESLVHSNRNTYLHWYLQKPGQSPQLLIYKVSNRFSGVPDRFSGSGSGTDFTLKISRVEAEDVGVYYCSQNTHVPPTFGQGTKVEIERTVAAPSVFIFPPSDEQLKSGTASVVCLLNNFYPREAKVQWKVDNALQSGNSQESVTEQDSKDSTYSLSSTLTLSKADYEKHKVYACEVTHQGLSSPVTKSFNRGEC
notes: as for B1
B6: GpH7-B3 variant Y300_02A/GpL16-k0 (antibody, human IgG1, kappa)
heavy: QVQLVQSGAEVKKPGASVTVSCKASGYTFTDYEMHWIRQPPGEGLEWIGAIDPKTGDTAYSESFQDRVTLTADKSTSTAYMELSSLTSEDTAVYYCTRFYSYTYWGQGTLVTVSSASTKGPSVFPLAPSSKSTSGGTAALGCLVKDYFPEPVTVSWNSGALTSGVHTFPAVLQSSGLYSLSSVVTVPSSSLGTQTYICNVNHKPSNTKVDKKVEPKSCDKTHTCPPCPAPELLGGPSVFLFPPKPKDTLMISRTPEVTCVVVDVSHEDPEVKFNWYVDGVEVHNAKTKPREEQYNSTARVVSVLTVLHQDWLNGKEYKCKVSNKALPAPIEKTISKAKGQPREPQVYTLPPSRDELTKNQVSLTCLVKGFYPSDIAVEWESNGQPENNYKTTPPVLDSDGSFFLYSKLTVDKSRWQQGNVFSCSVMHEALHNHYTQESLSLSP
light: DIVMTQSPLSLPVTPGEPASISCQASESLVHSNRNTYLHWYLQKPGQSPQLLIYKVSNRFSGVPDRFSGSGSGTDFTLKISRVEAEDVGVYYCSQNTHVPPTFGQGTKVEIERTVAAPSVFIFPPSDEQLKSGTASVVCLLNNFYPREAKVQWKVDNALQSGNSQESVTEQDSKDSTYSLSSTLTLSKADYEKHKVYACEVTHQGLSSPVTKSFNRGEC
notes: as for B1
B7: GpH7-B3 variant Y300_03V/GpL16-k0 (antibody, human IgG1, kappa)
heavy: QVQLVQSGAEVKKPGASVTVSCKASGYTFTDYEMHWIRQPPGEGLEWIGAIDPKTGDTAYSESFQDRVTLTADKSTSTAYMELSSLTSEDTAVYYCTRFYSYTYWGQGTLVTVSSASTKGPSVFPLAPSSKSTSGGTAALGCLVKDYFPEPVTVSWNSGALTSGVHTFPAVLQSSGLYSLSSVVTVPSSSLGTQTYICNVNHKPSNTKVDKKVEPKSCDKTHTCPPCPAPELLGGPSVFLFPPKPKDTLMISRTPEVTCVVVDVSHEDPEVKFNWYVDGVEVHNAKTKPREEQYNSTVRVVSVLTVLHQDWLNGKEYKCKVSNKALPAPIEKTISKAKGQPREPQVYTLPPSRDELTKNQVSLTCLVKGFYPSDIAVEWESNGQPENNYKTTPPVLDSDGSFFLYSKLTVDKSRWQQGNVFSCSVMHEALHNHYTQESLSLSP
light: DIVMTQSPLSLPVTPGEPASISCQASESLVHSNRNTYLHWYLQKPGQSPQLLIYKVSNRFSGVPDRFSGSGSGTDFTLKISRVEAEDVGVYYCSQNTHVPPTFGQGTKVEIERTVAAPSVFIFPPSDEQLKSGTASVVCLLNNFYPREAKVQWKVDNALQSGNSQESVTEQDSKDSTYSLSSTLTLSKADYEKHKVYACEVTHQGLSSPVTKSFNRGEC
notes: as for B1
B8: GpH7-B3 variant Y296_19Q/GpL16-k0 (antibody, human IgG1, kappa)
heavy: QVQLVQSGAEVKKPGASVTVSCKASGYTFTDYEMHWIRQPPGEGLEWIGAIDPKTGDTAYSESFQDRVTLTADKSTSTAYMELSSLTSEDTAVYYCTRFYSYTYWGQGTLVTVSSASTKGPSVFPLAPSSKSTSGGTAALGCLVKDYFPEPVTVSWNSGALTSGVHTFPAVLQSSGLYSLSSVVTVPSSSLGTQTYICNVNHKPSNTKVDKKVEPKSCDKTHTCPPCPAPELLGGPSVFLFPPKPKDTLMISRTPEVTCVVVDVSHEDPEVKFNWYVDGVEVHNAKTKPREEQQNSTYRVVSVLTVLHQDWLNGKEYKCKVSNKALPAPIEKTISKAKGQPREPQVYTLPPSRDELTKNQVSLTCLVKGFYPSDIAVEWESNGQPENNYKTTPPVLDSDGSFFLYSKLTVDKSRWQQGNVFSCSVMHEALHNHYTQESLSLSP
light: DIVMTQSPLSLPVTPGEPASISCQASESLVHSNRNTYLHWYLQKPGQSPQLLIYKVSNRFSGVPDRFSGSGSGTDFTLKISRVEAEDVGVYYCSQNTHVPPTFGQGTKVEIERTVAAPSVFIFPPSDEQLKSGTASVVCLLNNFYPREAKVQWKVDNALQSGNSQESVTEQDSKDSTYSLSSTLTLSKADYEKHKVYACEVTHQGLSSPVTKSFNRGEC
notes: as for B1

The target of the assay is T1, FcγRIa (human, UniProt P12314 16-292).
T1 construct: extracellular domain; also called FcgRI; CD64; not shown: C-terminal His tag
T1 sequence (P12314 16-292): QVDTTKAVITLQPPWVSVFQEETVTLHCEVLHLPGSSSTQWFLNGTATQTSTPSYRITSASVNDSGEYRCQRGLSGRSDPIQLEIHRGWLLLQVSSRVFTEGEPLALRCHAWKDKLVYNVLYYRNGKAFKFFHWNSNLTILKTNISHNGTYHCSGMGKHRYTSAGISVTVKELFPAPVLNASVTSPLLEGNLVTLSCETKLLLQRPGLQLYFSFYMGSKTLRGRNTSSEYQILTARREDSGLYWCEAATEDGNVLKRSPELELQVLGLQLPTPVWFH
Put plainly: SPR (Biacore), antibody captured on antigen peptide chip, FcγRIa as analyte; relative binding amount. The protocol:
Analysis of interaction between objective antibody and the FcγR was carried out using Biacore T100 (GE Healthcare). HBS-EP+ (GE Healthcare) was used as the running buffer, and the measurement temperature was set to 25° C. Chips produced by immobilizing the antigen peptide by the amine coupling method to a Series S Sencor Chip CM5 (GE Healthcare), or alternatively, chips produced by allowing preliminarily biotinylated antigen peptides to interact with and immobilize onto a Series S Sensor Chip SA (certified) (GE Healthcare) were used. Antibodies of interest were captured onto an antigen peptide-immobilized chip, and allowed to interact to each FcγR diluted with running buffer. To regenerate and repeatedly use the chip, the antibodies captured on the chip were washed off by reacting 10 mM glycine-HCl, pH 1.5.
For the molecule B1, the Ho/Con_1a is 105 % of control (GpH7-B3/GpL16-k0 = 100). For B2, the Ho/Con_1a is 111 % of control (GpH7-B3/GpL16-k0 = 100). For B3 the value was 106 % of control (GpH7-B3/GpL16-k0 = 100). As for B4, the Ho/Con_1a is 109 % of control (GpH7-B3/GpL16-k0 = 100).

Take B5: the Ho/Con_1a is 111 % of control (GpH7-B3/GpL16-k0 = 100). To B6 belongs 110 % of control (GpH7-B3/GpL16-k0 = 100); to B7, 112 % of control (GpH7-B3/GpL16-k0 = 100).

For B8, the Ho/Con_1a was 104 % of control (GpH7-B3/GpL16-k0 = 100).
